Earlier results as cited in paper PMC7339208.

What was measured:
[1] = target: IL-2 (Homo sapiens) (UniProt P60568)
[2] = target: IL-15 (Homo sapiens) (UniProt P40933)
UniProt P40933, sequence (P40933 49-162): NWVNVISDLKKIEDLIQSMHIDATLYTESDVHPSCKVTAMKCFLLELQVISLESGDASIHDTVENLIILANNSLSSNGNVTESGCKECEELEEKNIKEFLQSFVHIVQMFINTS

UniProt P60568, sequence (P60568 21-153): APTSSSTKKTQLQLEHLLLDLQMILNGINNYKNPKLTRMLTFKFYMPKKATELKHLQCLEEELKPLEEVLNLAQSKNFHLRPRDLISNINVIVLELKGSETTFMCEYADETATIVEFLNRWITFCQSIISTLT

Kd [1] [nM] | Kd [2] [nM] | Substance
10 |  | IL-2Rα (from UniProt P01589)
 | 0.1 | IL-15Rα (from UniProt Q13261)
